Assay results taken from article PMC8385062, “Deciphering ion transport and ATPase coupling in the intersubunit tunnel of KdpFABC” (Nature Communications, 2021).
Changes are numbered by the printed parent chain. Names and notes keep the numbering of the source.

B1: KdpFABC (nucleotide / vanadate rows, site in KdpB) (Escherichia coli K-12) (protein)
chain: MSRKQLALFEPTLVVQALKEAVKKLNPQAQWRNPVMFIVWIGSLLTTCISIAMASGAMPGNALFSAAISGWLWITVLFANFAEALAEGRSKAQANSLKGVKKTAFARKLREPKYGAAADKVPADQLRKGDIVLVEAGDIIPCDGEVIEGGASVDESAITGESAPVIRESGGDFASVTGGTRILSDWLVIECSVNPGETFLDRMIAMVEGAQRRKTPNEIALTILLIALTIVFLLATATLWPFSAWGGNAVSVTVLVALLVCLIPTTIGGLLSAIGVAGMSRMLGANVIATSGRAVEAAGDVDVLLLDKTGTITLGNRQASEFIPAQGVDEKTLADAAQLASLADETPEGRSIVILAKQRFNLRERDVQSLHATFVPFTAQSRMSGINIDNRMIRKGSVDAIRRHVEANGGHFPTDVDQKVDQVARQGATPLVVVEGSRVLGVIALKDIVKGGIKERFAQLRKMGIKTVMITGDNRLTAAAIAAEAGVDDFLAEATPEAKLALIRQYQAEGRLVAMTGDGTNDAPALAQADVAVAMNSGTQAAKEAGNMVDLDSNPTKLIEVVHIGKQMLMTRGSLTTFSIANDVAKYFAIIPAAFAATYPQLNALNIMCLHSPDSAILSAVIFNALIIVFLIPLALKGVSYKPLTASAMLRRNLWIYGLGGLLVPFIGIKVIDLLLTVCGLV
B2: KdpFABC (nucleotide / vanadate rows, site in KdpB) (Escherichia coli K-12; F232A) (protein)
chain: B1 chain with F232A

Substrate: Nc1ncnc2c1ncn2[C@@H]1O[C@H](COP(=O)(O)OP(=O)(O)OP(=O)(O)O)[C@@H](O)[C@H]1O
Assay: purified protein
Settings: 1 mM KCl, 37 °C

Row | Protein | Km [µM] | Km (K+-uncoupled variant) [µM]
1 | B1 | 150 | –
2 | B2 | – | 100
